Reference: patent publication US8536118B2, “Methods and compositions for modulating hyperstabilized c-met” (Genentech, Inc., priority 2005, dated 2013)

How the values were obtained:
Met receptor = Met receptor (Homo sapiens, UniProt P08581, DEL964-1010); assay: Met receptor inhibition in serum-starved, rhuHGF-stimulated cells, immunoblot with infrared quantification; type: cell-based; conditions: H596 cells (Met exon 14 deletion), antibody 30 minutes, then 100 ng/ml rhuHGF; FIGS. 4A, 6
Description: (§1) To examine the prolonged signaling in H226, H596, H358, or Rat 1A-Met stable clones, the cells were rinsed with PBS then serum-starved in RPMI or DMEM media containing 0.5% BSA, 2 mM glutamine, and penicillin/streptomycin for one hour. rhuHGF or the agonistic anti-Met monoclonal antibody, 3D6 (Genentech), was added to the serum-free media for 10 minutes. The monolayer of cells was then rinsed with PBS and incubated with serum-free media until their extraction at the indicated times. Cells were then rinsed once with PBS, lysed with 1×SDS sample buffer containing 1×DTT (Invitrogen), sonicated briefly, and boiled for 5 minutes. […] Boiled samples were analyzed by SDS-PAGE and immunoblotted with P-Met (Y1230/Y1234/Y1235, BioSource), P-Met (Y1234/Y1235), Met (DL-21), P-MAPK (E10, Cell Signaling), P-MAPK (Cell Signaling), P-Akt (587F11, Cell Signaling), or Akt (Cell Signaling). […] Proteins transferred onto nitrocellulose membranes were detected by infrared scan using Odyssey (LiCor) according to the manufacturer's recommended western blotting instructions followed by quantification. […] After 72 hrs, cell viability was measured using the Celltiter-Glo Luminescent Cell Viability Assay (Promega). Stimulation indices were determined by dividing the average cell viability units of HGF-stimulated cultures by the average cell viability units of unstimulated cultures. […]

H596 cells = assay: Growth inhibition assay (Celltiter-Glo cell viability, 72 hrs, HGF stimulation); type: cell-based, human; conditions: with or without 50 ng/ml rhuHGF, FIG. 4B
Description: as §1

B1: OA-5D5: known anti-c-met inhibitor; antibody of intact light chain, heavy chain and N-terminally truncated heavy chain comprising an Fc portion (antibody, V domains shown)
VH: EVQLVESGGGLVQPGGSLRLSCAASGYTFTSYWLHWVRQAPGKGLEWVGMIDPSNSDTRFNPNFKDRFTISADTSKNTAYLQMNSLRAEDTAVYYCATYRSYVTPLDYWGQGTLVTVSS
VL: DIQMTQSPSSLSASVGDRVTITCKSSQSLLYTSSQKNYLAWYQQKPGKAPKLLIYWASTRESGVPSRFSGSGSGTDFTLTISSLQPEDFATYYCQQYYAYPWTFGQGTKVEIK
modifications: constant regions; truncated heavy chain Fc; Sequence is synthesized
notes: antibody of intact light chain, heavy chain and N-terminally truncated heavy chain comprising an Fc portion
MAPK phosphorylation (Met receptor): decreased with the addition of anti-Met OA-5D5 in a dose-dependent manner | Met phosphorylation (Met receptor): decreased with the addition of anti-Met OA-5D5 in a dose-dependent manner | cell proliferation (cell viability) (H596 cells): dose-dependent inhibition of cell proliferation in a ligand-dependent manner
